Data: paper PMC10911789

Molecular target: Recombinant spike, SARS-CoV-2 stabilized protein (BEI Resources NR-52724) (SARS-CoV-2) (UniProt P0DTC2)
Assay: BLI

Sequence of recombinant human GAPDH (glyceraldehyde-3-phosphate dehydrogenase) (P04406 whole entry): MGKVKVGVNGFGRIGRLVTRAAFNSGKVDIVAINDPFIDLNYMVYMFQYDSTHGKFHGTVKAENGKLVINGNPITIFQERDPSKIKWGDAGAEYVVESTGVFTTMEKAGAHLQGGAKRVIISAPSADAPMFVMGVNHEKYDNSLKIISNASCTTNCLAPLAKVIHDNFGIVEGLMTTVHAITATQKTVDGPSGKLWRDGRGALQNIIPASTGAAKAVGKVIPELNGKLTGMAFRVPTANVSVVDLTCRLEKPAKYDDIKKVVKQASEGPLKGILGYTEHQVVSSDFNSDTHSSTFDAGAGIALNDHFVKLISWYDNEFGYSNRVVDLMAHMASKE

recombinant human GAPDH (glyceraldehyde-3-phosphate dehydrogenase) (from UniProt P04406 1-335) (enzyme)
Kd: 61.9 nM
